This passage reports interaction score results from PMC10397247.

The target of one assay is T1, P8A-bN.
T1 chain: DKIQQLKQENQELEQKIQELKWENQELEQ
The assay can be described thus: two-hybrid library CCNG1.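 Further: natural log of median RNA to DNA barcode read ratio; higher means stronger binding.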

The target of another assay is T2, 4H56-bN.
T2 chain: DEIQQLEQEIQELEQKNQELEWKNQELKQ
The assay can be described thus: two-hybrid library CCNG1.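 Further: natural log of median RNA to DNA barcode read ratio; higher means stronger binding.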

A further assay concerns the target T3, 4H796-bN.
T3 chain: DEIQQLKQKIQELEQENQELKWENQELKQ
Briefly: two-hybrid library CCNG1.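 Further: natural log of median RNA to DNA barcode read ratio; higher means stronger binding.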

Another assay has as its target T4, 4H949-bN.
T4 chain: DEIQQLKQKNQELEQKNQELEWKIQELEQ
Briefly: two-hybrid library CCNG1.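 Further: natural log of median RNA to DNA barcode read ratio; higher means stronger binding.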

The target of the next assay is T5, 4H932-bN.
T5 chain: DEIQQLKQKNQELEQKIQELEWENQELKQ
The assay can be described thus: two-hybrid library CCNG1.

In another assay the target is T6, O13.
T6 chain: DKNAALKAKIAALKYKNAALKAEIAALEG
Briefly: two-hybrid library CCNG1.

In a further assay the target is T7, 4H730-bN.
T7 chain: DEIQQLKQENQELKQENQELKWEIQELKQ
The assay can be described thus: two-hybrid library CCNG1.

For a further assay, the target named is T8, 4H3926-bN.
T8 chain: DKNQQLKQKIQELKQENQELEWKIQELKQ
The assay can be described thus: two-hybrid library CCNG1.

The next assay concerns the target T9, 4H780-bN.
T9 chain: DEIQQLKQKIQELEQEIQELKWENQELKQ
The assay can be described thus: two-hybrid library CCNG1.

The next assay has as its target T10, 4H457-bN.
T10 chain: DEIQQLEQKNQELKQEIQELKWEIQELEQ
The assay can be described thus: two-hybrid library CCNG1.

The target of the next assay is T11, 4H4001-bN.
T11 chain: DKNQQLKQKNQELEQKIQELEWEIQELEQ
The assay can be described thus: two-hybrid library CCNG1.

The target of the next assay is T12, 4H3782-bN.
T12 chain: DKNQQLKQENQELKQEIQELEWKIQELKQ
Briefly: two-hybrid library CCNG1.

For a further assay, the target named is T13, 4H607-bN.
T13 chain: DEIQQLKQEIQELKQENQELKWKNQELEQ
The assay can be described thus: two-hybrid library CCNG1.

The next assay has as its target T14, 4H346-bN.
T14 chain: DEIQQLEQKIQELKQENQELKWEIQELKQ
Briefly: two-hybrid library CCNG1.

Another assay deals with T15, 4H3855-bN.
T15 chain: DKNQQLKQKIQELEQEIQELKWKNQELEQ
Briefly: two-hybrid library CCNG1.

Another assay concerns the target T16, 4H454-bN.
T16 chain: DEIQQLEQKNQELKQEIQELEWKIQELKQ
The assay can be described thus: two-hybrid library CCNG1.

In another assay the target is T17, 4H797-bN.
T17 chain: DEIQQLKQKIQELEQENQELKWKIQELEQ
Briefly: two-hybrid library CCNG1.

The target of a further assay is T18, 4H3427-bN.
T18 chain: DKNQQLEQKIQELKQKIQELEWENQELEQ
Briefly: two-hybrid library CCNG1.

The target in the next assay is T19, 4H4073-bN.
T19 chain: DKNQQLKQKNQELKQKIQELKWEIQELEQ
The assay can be described thus: two-hybrid library CCNG1.

The next assay concerns the target T20, 4H568-bN.
T20 chain: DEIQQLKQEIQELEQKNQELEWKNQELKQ
The assay can be described thus: two-hybrid library CCNG1.

A further assay has as its target T21, 4H717-bN.
T21 chain: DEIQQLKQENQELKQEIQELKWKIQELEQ
The assay can be described thus: two-hybrid library CCNG1.

The target of another assay is T22, 4H754-bN.
T22 chain: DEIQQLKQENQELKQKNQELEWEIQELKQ
Briefly: two-hybrid library CCNG1.

Another assay addresses T23, 4H953-bN.
T23 chain: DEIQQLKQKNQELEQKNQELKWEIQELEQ
The assay can be described thus: two-hybrid library CCNG1.

A further assay addresses T24, 4H72-bN.
T24 chain: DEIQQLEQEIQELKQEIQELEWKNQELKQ
Briefly: two-hybrid library CCNG1.

The target of another assay is T25, 4H968-bN.
T25 chain: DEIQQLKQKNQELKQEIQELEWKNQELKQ
The assay can be described thus: two-hybrid library CCNG1.

The target in another assay is T26, 4H967-bN.
T26 chain: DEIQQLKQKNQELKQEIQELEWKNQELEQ
The assay can be described thus: two-hybrid library CCNG1.

Another assay addresses T27, 4H918-bN.
T27 chain: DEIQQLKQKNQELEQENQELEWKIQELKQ
Briefly: two-hybrid library CCNG1.

A further assay deals with T28, 4H908-bN.
T28 chain: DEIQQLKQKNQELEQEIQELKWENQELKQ
Briefly: two-hybrid library CCNG1.

A further assay addresses T29, 4H883-bN.
T29 chain: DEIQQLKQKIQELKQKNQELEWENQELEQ
The assay can be described thus: two-hybrid library CCNG1.

Another assay has as its target T30, 4H687-bN.
T30 chain: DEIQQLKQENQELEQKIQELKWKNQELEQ
The assay can be described thus: two-hybrid library CCNG1.

A further assay addresses T31, 4H717-bA.
T31 chain: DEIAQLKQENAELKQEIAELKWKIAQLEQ
The assay can be described thus: two-hybrid library CCNG1.

The next assay has as its target T32, 4H575-bN.
T32 chain: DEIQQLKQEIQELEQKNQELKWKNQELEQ
The assay can be described thus: two-hybrid library CCNG1.

For another assay, the target named is T33, 4H683-bN.
T33 chain: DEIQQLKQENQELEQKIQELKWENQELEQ
Briefly: two-hybrid library CCNG1.

In the next assay the target is T34, 4H855-bN.
T34 chain: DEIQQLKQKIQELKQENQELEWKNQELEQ
The assay can be described thus: two-hybrid library CCNG1.

For the next assay, the target named is T35, 4H2667-bH.
T35 chain: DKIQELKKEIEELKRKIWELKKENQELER
Briefly: two-hybrid library CCNG1.

A further assay addresses T36, 4H3189-bH.
T36 chain: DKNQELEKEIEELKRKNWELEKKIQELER
Briefly: two-hybrid library CCNG1.

In the next assay the target is T37, 4H883-bH.
T37 chain: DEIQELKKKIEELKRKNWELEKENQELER
Briefly: two-hybrid library CCNG1.

For the next assay, the target named is T38, 4H4001-bH.
T38 chain: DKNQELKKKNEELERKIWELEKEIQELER
The assay can be described thus: two-hybrid library CCNG1.

In another assay the target is T39, 4H2610-bH.
T39 chain: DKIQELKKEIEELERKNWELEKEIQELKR
The assay can be described thus: two-hybrid library CCNG1.

The target of another assay is T40, 4H2697-bH.
T40 chain: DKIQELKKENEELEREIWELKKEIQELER
The assay can be described thus: two-hybrid library CCNG1.

The target in a further assay is T41, 4H370-bH.
T41 chain: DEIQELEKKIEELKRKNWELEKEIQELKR
The assay can be described thus: two-hybrid library CCNG1.

Another assay deals with T42, 4H72-bH.
T42 chain: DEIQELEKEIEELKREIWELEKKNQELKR
The assay can be described thus: two-hybrid library CCNG1.

The target in a further assay is T43, 4H687-bH.
T43 chain: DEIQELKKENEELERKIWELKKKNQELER
The assay can be described thus: two-hybrid library CCNG1.

A further assay addresses T44, 4H953-bH.
T44 chain: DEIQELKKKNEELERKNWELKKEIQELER
The assay can be described thus: two-hybrid library CCNG1.

The target of a further assay is T45, 4H607-bH.
T45 chain: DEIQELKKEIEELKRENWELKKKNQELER
Briefly: two-hybrid library CCNG1.

For a further assay, the target named is T46, 4H462-bH.
T46 chain: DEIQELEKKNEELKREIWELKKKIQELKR
The assay can be described thus: two-hybrid library CCNG1.

The next assay addresses T47, 4H3606-bH.
T47 chain: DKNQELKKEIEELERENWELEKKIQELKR
Briefly: two-hybrid library CCNG1.

The target of another assay is T48, 4H331-bH.
T48 chain: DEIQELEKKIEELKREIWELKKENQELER
The assay can be described thus: two-hybrid library CCNG1.

In a further assay the target is T49, 4H3843-bH.
T49 chain: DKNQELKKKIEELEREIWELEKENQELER
The assay can be described thus: two-hybrid library CCNG1.

A further assay concerns the target T50, 4H797-bH.
T50 chain: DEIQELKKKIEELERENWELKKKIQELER
The assay can be described thus: two-hybrid library CCNG1.

The target of a further assay is T51, 4H2618-bH.
T51 chain: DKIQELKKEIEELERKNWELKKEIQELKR
Briefly: two-hybrid library CCNG1.

Another assay deals with T52, 4H568-bH.
T52 chain: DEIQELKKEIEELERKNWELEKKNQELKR
Briefly: two-hybrid library CCNG1.

The target of the next assay is T53, 4H918-bH.
T53 chain: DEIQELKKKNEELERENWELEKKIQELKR
Briefly: two-hybrid library CCNG1.

In another assay the target is T54, 4H3782-bH.
T54 chain: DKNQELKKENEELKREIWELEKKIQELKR
Briefly: two-hybrid library CCNG1.

The target of the next assay is T55, O3.
T55 chain: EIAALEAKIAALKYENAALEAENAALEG
Briefly: two-hybrid library CC0. The following applies: mean of both orientations.

The next assay deals with T56, O6.
T56 chain: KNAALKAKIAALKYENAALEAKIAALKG
The assay can be described thus: two-hybrid library CC0. The following applies: mean of both orientations.

The next assay deals with T57, O8.
T57 chain: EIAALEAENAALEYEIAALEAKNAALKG
Briefly: two-hybrid library CC0. As to conditions: mean of both orientations.

The target of the next assay is T58, O9.
T58 chain: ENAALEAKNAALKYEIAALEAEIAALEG
The assay can be described thus: two-hybrid library CC0. As to conditions: mean of both orientations.

Another assay addresses T59, O5.
T59 chain: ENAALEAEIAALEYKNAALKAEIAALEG
The assay can be described thus: two-hybrid library CC0. As to conditions: mean of both orientations.

The target of a further assay is T60, O15.
T60 chain: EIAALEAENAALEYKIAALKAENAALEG
The assay can be described thus: two-hybrid library CC0. The following applies: mean of both orientations.

The target in another assay is T61, O7.
T61 chain: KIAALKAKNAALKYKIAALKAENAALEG
The assay can be described thus: two-hybrid library CC0. The following applies: mean of both orientations.

The target of another assay is T62, O2.
T62 chain: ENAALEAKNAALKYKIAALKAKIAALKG
Briefly: two-hybrid library CC0. As to conditions: mean of both orientations.

The next assay has as its target T63, O4.
T63 chain: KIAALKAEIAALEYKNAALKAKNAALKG
The assay can be described thus: two-hybrid library CC0. The following applies: mean of both orientations.

A further assay concerns the target T64, O16.
T64 chain: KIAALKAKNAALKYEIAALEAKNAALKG
The assay can be described thus: two-hybrid library CC0. As to conditions: mean of both orientations.

Turning to DEIQQLEQEIQELEQKNQELEWKNQELKQ [4H56-bN], the interaction score was -1.19 in the assay with P8A-bN; 0.863 with 4H56-bN; 0.00289 in the assay with 4H796-bN; -1.76 with 4H949-bN; -0.791 with 4H932-bN; -0.5 in the assay with O13. The interaction score with 4H730-bN came to 0.387.
For the molecule DKNQQLEQKIQELKQKIQELEWENQELEQ [4H3427-bN], the interaction score with 4H3926-bN was -1.1; in the assay with 4H780-bN, -1.3; with 4H457-bN it was -0.939; with 4H4001-bN it was -1; with 4H3782-bN, -0.306; with 4H607-bN it was -0.874. Besides, the interaction score was -2.04 with 4H346-bN; -0.838 in the assay with 4H3855-bN; -0.734 with 4H454-bN; -0.295 with 4H797-bN; -0.0454 in the assay with 4H3427-bN; -1.1 with 4H4073-bN. The interaction score was -0.0377 in the assay with 4H568-bN; -0.704 with 4H717-bN; -1.39 in the assay with 4H754-bN; -0.667 with 4H953-bN; -1.54 with 4H72-bN; -1.97 in the assay with 4H968-bN. Also, the interaction score in the assay with 4H967-bN is -1.07; with 4H918-bN it was -1.53; in the assay with O13, -2.44; in the assay with 4H908-bN, -0.725; in the assay with 4H883-bN, -1.75; with 4H687-bN, -0.849. Besides, the interaction score with 4H717-bA was -0.117; with 4H575-bN, -1.57; with 4H683-bN, -2.33; in the assay with 4H855-bN, -0.804.
Turning to DKIQELKKEIEELERKNWELEKEIQELKR [4H2610-bH], the interaction score was -0.792 with 4H2667-bH; 0.354 with 4H3189-bH; 1.68 with 4H883-bH; 0.47 with 4H4001-bH; 1.39 with 4H2610-bH; -0.13 in the assay with 4H2697-bH. For the same molecule, the interaction score in the assay with 4H370-bH was 1.24; with 4H72-bH, 0.879; with 4H687-bH, 0.522; in the assay with 4H953-bH, -1.02; in the assay with 4H607-bH, -0.288; with 4H462-bH, 1.13. Also, the interaction score was 0.997 with 4H3606-bH; -0.139 in the assay with 4H331-bH; 0.428 with 4H3843-bH; -0.388 in the assay with 4H797-bH; -2.22 with 4H2618-bH; 1.22 with 4H568-bH. Further, the interaction score was -0.153 in the assay with 4H918-bH and -0.423 in the assay with 4H3782-bH.
On to EIAALEAENAALEYKIAALKAENAALEG [O15], for which the interaction score is -2.8 with O3; -2.79 with O6; -2.41 with O8; -2.72 in the assay with O9; -2.15 with O5; -2.64 with O15. Besides, the interaction score with O7 is -1.87; with O2, -2.7; in the assay with O4 it was -2.54; with O16, 1.2.
